Positions count from the first letter of the chain named. In names and notes the source's numbering stands.
Tests used:
human CD137 = target: T1, human CD137 (human, UniProt Q07011 24-186); assay: ECL, IgG with biotinylated antigen on streptavidin plate, log axis
T1 construct: soluble Biacore analyte; also called hCD137; recombinant human CD137

[1] = target: biotinylated CD3 epsilon epitope peptide; assay: SPR, method of Ref. Ex. 3, one-arm Ab
[2] = target: T2, biotin labeled human IgG1 Fc (human, UniProt P01857-1 104-330 = IgG part, limits assumed, biotin-labeled); assay: bead ELISA, IgG
T2 construct: domain: Fc region; control antigen; also called human Fc

[3] = target: T3, biotin-labeled cynomolgus monkey CD137 fused to human IgG1 Fc fragment (cynomolgus monkey; human, UniProt Q07011 24-186, limits assumed, biotin-labeled); assay: ELISA, IgG
T3 construct: also called cyno CD137-Fc; not shown: human IgG1 Fc fragment
T3 chain: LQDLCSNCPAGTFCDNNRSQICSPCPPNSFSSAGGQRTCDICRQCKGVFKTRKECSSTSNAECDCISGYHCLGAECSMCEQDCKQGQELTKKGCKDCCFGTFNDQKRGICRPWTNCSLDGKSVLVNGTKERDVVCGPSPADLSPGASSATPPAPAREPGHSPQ

[4] = target: T4, biotin-labeled human CD137 fused to human IgG1 Fc fragment (human, biotin-labeled); assay: bead ELISA; no competitor
T4 construct: also called human CD137-Fc; biotin-human CD137-Fc

recombinant human CD3 = target: T5, recombinant human CD3 (human); assay: SPR, Ab captured by anti-Fc, 37 C
T5 construct: also called hCD3

B1: dBBDu_011 (antibody, V domains shown)
VH: QVQLVESGGGLVQPGRSLRLSCAASGFTFSNAWMHWVRQAPGKGLEWVAQIKDKSSLYNTYYAPSVKGRFTISRDDSKNSIYLQMNSLKTEDTAVYYCRYVHYGASYGFLFAGYGVDAWGQGTTVTVSS
VL: DIVMTQSPLSLPVTPGEPASISCRSSQSLVHSNRNTYLHWYQQKPGQAPRLLIYKVSNRFSGVPDRFSGSGSGTDFTLKISRVEAEDVGVYYCGQGTQVPYTFGQGTKLEIK
notes: converted to IgG with human H and L chain constant domains; also called clone 011
binding result (human CD137): binds

B2: CE115HA000 one-arm antibody (antibody, human IgG1, kappa, L234A L235A, N297A)
heavy: QVQLVESGGGVVQPGRSLRLSCAASGFTFSNAWMHWVRQAPGKGLEWVAQIKAKSNNYATYYAESVKGRFTISRDDSKNSLYLQMNSLKTEDTAVYYCRYVHYGAYYGVDAWGQGTTVTVSSASTKGPSVFPLAPSSKSTSGGTAALGCLVKDYFPEPVTVSWNSGALTSGVHTFPAVLQSSGLYSLSSVVTVPSSSLGTQTYICNVNHKPSNTKVDKKVEPKSCDKTHTCPPCPAPEAAGGPSVFLFPPKPKDTLMISRTPEVTCVVVDVSHEDPEVKFNWYVDGVEVHNAKTKPREEQYASTYRVVSVLTVLHQDWLNGKEYKCKVSNKALPAPIEKTISKAKGQPREPQVYTLPPSRCELTKNQVSLSCAVKGFYPSDIAVEWESNGQPENNYKTTPPVLDSDGSFFLVSKLTVDKSRWQQGNVFSCSVMHEALHNHYTQKSLSLSPDYKDDDDK
chain: EPKSSDKTHTCPPCPAPELLGGPSVFLFPPKPKDTLMISRTPEVTCVVVDVSHEDPEVKFNWYVDGVEVHNAKTKPREEQYNSTYRVVSVLTVLHQDWLNGKEYKCKVSNKALPAPIEKTISKAKGQPREPQVCTLPPSRDELTKNQVSLWCLVKGFYPSDIAVEWESNGQPENNYKTTPPVLDSDGSFFLYSKLTVDKSRWQQGNVFSCSVMHEALHNRYTQKSLSLSP
light: DIVMTQSPLSLPVTPGEPASISCRSSQSLVHSNRNTYLHWYQQKPGQAPRLLIYKVSNRFSGVPDRFSGSGSGTDFTLKISRVEAEDVGVYYCGQGTQVPYTFGQGTKLEIKRTVAAPSVFIFPPSDEQLKSGTASVVCLLNNFYPREAKVQWKVDNALQSGNSQESVTEQDSKDSTYSLSSTLTLSKADYEKHKVYACEVTHQGLSSPVTKSFNRGEC
notes: one-arm antibody
Kd [1]: 110 nM

B3: DADU01_3#001 (antibody, IgG1, V domains shown)
VH: QVQLVESGGGLVQPGRSLRLSCAASGFTFSIAWMHWVRQAPGKGLEWVAQIKDRVNAYEAYYAPSVKGRFTISRDDSKNSIYLQMNSLKTEDTAVYYCRYVHYASYYDLLGYGGVDAWGQGTTVTVSS
VL: B1 VL
notes: IgG1; also called dBBDu_126; dBBDu126
RLU [2]: 1760 RLU

B4: DADU01_3#018 (antibody, IgG1, V domains shown)
VH: QVQLVESGGGLVQPGRSLRLSCAASGFTFSNAWMHWVRQAPGKGLEWVAQIKDRANSYNAYYAPSVKGRFTISRDDSKNSIYLQMNSLKTEDTAVYYCHYVHYSAASTLLPSFGVDAWGQGTTVTVSS
VL: B1 VL
notes: IgG1; also called dBBDu123
RLU [2]: 1900 RLU

B5: DXDU01_3#051 (antibody, IgG1, V domains shown)
VH: B4 VH with A55G, N56Q, S57Q, S104A, A105S, T108S, L109V, S112G, F113Y
VL: B1 VL
notes: IgG1; also called dBBDu127
RLU [2]: 2910 RLU

B6: DXDU01_3#094 (antibody, IgG1, V domains shown)
VH: B4 VH with R54K, A55G, S57A, N59A, S104A, A105S, S107A, T108G, L109G, S112G
VL: B1 VL
notes: IgG1; also called dBBDu121
RLU [2]: 2370 RLU

B7: dBBDu181 (antibody, IgG1, V domains shown)
VH: B4 VH with V48I, A55G, S57N, A60N, S104A, A105T, P111G, S112A, F113Y
VL: B1 VL
notes: IgG1
binding result [3]: binds
ELISA signal [4]: 3240

B8: DADU01_3#002 (antibody, IgG1, V domains shown)
VH: B4 VH with R54K, A55Q, S57L, P64E, S104A, A105S, L109V, S112A
VL: B1 VL
notes: IgG1; also called dBBDu124
RLU [2]: 1920 RLU

B9: DXDU01_3#019 (antibody, IgG1, V domains shown)
VH: B3 VH with R54K, A57G, E59T, P64E, S105A, L109V
VL: B1 VL
notes: IgG1; also called dBBDu125
RLU [2]: 3260 RLU

B10: GPC3/CD137xCD3 trispecific antibody (other)
VH 1: QVQLQQWGAGLLKPSETLSLTCAVYGGSFSGYYWSWIRQSPEKGLEWIGEINHGGYVTYNPSLESRVTISVDTSKNQFSLKLSSVTAADTAVYYCARDYGPGNYDWYFDLWGRGTLVTVSS
VL 1: EIVLTQSPATLSLSPGERATLSCRASQSVSSYLAWYQQKPGQAPRLLIYDASNRATGIPARFSGSGSGTDFTLTISSLEPEDFAVYYCQQRSNWPPALTFGGGTKVEIK
VH 2: QVQLVESGGGLVQPGRSLRLSCAASGFTFSNAWMHWVRQAPGKGLEWVAQIKDRANSYNTYYAESVKGRFTISRDDSKNSIYLQMNSLKTEDTAVYYCRYVHYTTYAGSSFSYGVDAWGQGTTVTVSS
VL 2: B1 VL with S28P
VH 3: QVQLVQSGAEVKKPGASVTVSCKASGYTFTDYEMHWIRQPPGEGLEWIGAIDGPTPDTAYSEKFKGRVTLTADKSTSTAYMELSSLTSEDTAVYYCTRFYSYTYWGQGTLVTVSS
VL 3: B1 VL with S28P
notes: mAb AB made by CrossMab and Fab-arm exchange; silent Fc (L235R, G236R, S239K, N297A); also called anti-GPC3/CD137xCD3
Kd (recombinant human CD3): 19.7 nM
koff (recombinant human CD3): 0.00161 s⁻¹
kon (recombinant human CD3): 81800 M⁻¹ s⁻¹

— patent publication US20200377595A1 (Chugai, published 2020)
